{
  "source": "the RNAGym collection of RNA variant scans (doi:10.7554/elife.90254)",
  "parents": {"B1": {"name": "OR4K15 (parent)", "chain": "GUUAACGGUCAUAGGCCAUGGAAACUAGGAGCACCAUUUCGCUGCCAGUGAAGAAAUGAACAAAGAAAAUCUGGGCCAGGCAGGCAUCAAAAGAAAUAGUCUUGCGCUCAACCAGAAAGUCUGUAAUCAUUUUAAGGGUA"}},
  "data": [
    {"variants_of": "B1", "assay": "self-cleavage, relative activity (ratio to wild type); higher = more cleavage; in vitro, sequencing; the parent is a self-cleaving ribozyme", "values": [
      {"variant": "U49A A96G", "self-cleavage": 1.12},
      {"variant": "G44U A135G", "self-cleavage": 1.6},
      {"variant": "G48U A114U", "self-cleavage": 0.09},
      {"variant": "A47U U130C", "self-cleavage": 0.43},
      {"variant": "G44A G93C", "self-cleavage": 1.87},
      {"variant": "U43C U132C", "self-cleavage": 1.27},
      {"variant": "A47G A140U", "self-cleavage": 1.24},
      {"variant": "G44U A110G", "self-cleavage": 0.18},
      {"variant": "U43C G83A", "self-cleavage": 1.59},
      {"variant": "U43C G83U", "self-cleavage": 0.67},
      {"variant": "C45U U132C", "self-cleavage": 0.61},
      {"variant": "C45U U132A", "self-cleavage": 1.05},
      {"variant": "A47U U127C", "self-cleavage": 0.59},
      {"variant": "A47U U127A", "self-cleavage": 0.24},
      {"variant": "C46A A78G", "self-cleavage": 0.17},
      {"variant": "A47C A52G", "self-cleavage": 0.57},
      {"variant": "U49C A69G", "self-cleavage": 1.2},
      {"variant": "U49C A69U", "self-cleavage": 2},
      {"variant": "U43C U124C", "self-cleavage": 1.13},
      {"variant": "G44A A134G", "self-cleavage": 1.84},
      {"variant": "C45A A91G", "self-cleavage": 0.61},
      {"variant": "G48A A91U", "self-cleavage": 1.71},
      {"variant": "C46U U102C", "self-cleavage": 1.84},
      {"variant": "C46U U102A", "self-cleavage": 1.59},
      {"variant": "U49A A55G", "self-cleavage": 1.53},
      {"variant": "A47G G99A", "self-cleavage": 0.4},
      {"variant": "A47G G99U", "self-cleavage": 0.51},
      {"variant": "U49C A89U", "self-cleavage": 2.12},
      {"variant": "U49C A96G", "self-cleavage": 1},
      {"variant": "U49C A96U", "self-cleavage": 1.92},
      {"variant": "A47C G79A", "self-cleavage": 0.14},
      {"variant": "G48U A96G", "self-cleavage": 1.28},
      {"variant": "G48C A51G", "self-cleavage": 0.94},
      {"variant": "A47U A89U", "self-cleavage": 0.95},
      {"variant": "A47U A89G", "self-cleavage": 0.86},
      {"variant": "C45U C77A", "self-cleavage": 0.42},
      {"variant": "A47C A114G", "self-cleavage": 0.3},
      {"variant": "U49A A69G", "self-cleavage": 1.49},
      {"variant": "A47U A86G", "self-cleavage": 0.23},
      {"variant": "G48U U103C", "self-cleavage": 0.49},
      {"variant": "A47G U122A", "self-cleavage": 1.11},
      {"variant": "A47G U122C", "self-cleavage": 0.62},
      {"variant": "G48A A66U", "self-cleavage": 1.33},
      {"variant": "U49A U72C", "self-cleavage": 0.16},
      {"variant": "U49A U72A", "self-cleavage": 0.36},
      {"variant": "A47U U108A", "self-cleavage": 0.01},
      {"variant": "C46A A134G", "self-cleavage": 1.14},
      {"variant": "U49A A82U", "self-cleavage": 0.18},
      {"variant": "A47C A59C", "self-cleavage": 1.35},
      {"variant": "U43G A89G", "self-cleavage": 1.26},
      {"variant": "C45A A114G", "self-cleavage": 0.06},
      {"variant": "U49A A91G", "self-cleavage": 1},
      {"variant": "A47G A117G", "self-cleavage": 1.32},
      {"variant": "G48A A63G", "self-cleavage": 0.93},
      {"variant": "A47G A114U", "self-cleavage": 0.11},
      {"variant": "C46A A116G", "self-cleavage": 0.57},
      {"variant": "A47C A90G", "self-cleavage": 1.61},
      {"variant": "U49A U103G", "self-cleavage": 0.01},
      {"variant": "U49A U103C", "self-cleavage": 0.93},
      {"variant": "A47C A54G", "self-cleavage": 1.5},
      {"variant": "A47G A60U", "self-cleavage": 1.4},
      {"variant": "A47U A59G", "self-cleavage": 0.62},
      {"variant": "A47U A51G", "self-cleavage": 0.86},
      {"variant": "C45U A68G", "self-cleavage": 1.96},
      {"variant": "A47U A63G", "self-cleavage": 0.8},
      {"variant": "G48C A55G", "self-cleavage": 1.64},
      {"variant": "A47C U72A", "self-cleavage": 0.37},
      {"variant": "U49A A114U", "self-cleavage": 0.04},
      {"variant": "U49A A54G", "self-cleavage": 1.3},
      {"variant": "U49A A54U", "self-cleavage": 0.89},
      {"variant": "C46A A60G", "self-cleavage": 0.67},
      {"variant": "A47G A110C", "self-cleavage": 0.1},
      {"variant": "A47G A110G", "self-cleavage": 0.1},
      {"variant": "A47G U132A", "self-cleavage": 1.55},
      {"variant": "A47U U120C", "self-cleavage": 0.28},
      {"variant": "G48A A129G", "self-cleavage": 1.14},
      {"variant": "A47G U103C", "self-cleavage": 0.34},
      {"variant": "U49A A51C", "self-cleavage": 0.3},
      {"variant": "U49A A51U", "self-cleavage": 1.63},
      {"variant": "C45U G48A", "self-cleavage": 1.78},
      {"variant": "A47G G84C", "self-cleavage": 0.24},
      {"variant": "C45U A67G", "self-cleavage": 1.94},
      {"variant": "A47G A69G", "self-cleavage": 0.93},
      {"variant": "A47G A69U", "self-cleavage": 1.35},
      {"variant": "A47U A110C", "self-cleavage": 0.13},
      {"variant": "A47U A110G", "self-cleavage": 0.05},
      {"variant": "A47U A134G", "self-cleavage": 1.24},
      {"variant": "U49A A126G", "self-cleavage": 0.99},
      {"variant": "A47U C101U", "self-cleavage": 0.22},
      {"variant": "U43G A90G", "self-cleavage": 0.51},
      {"variant": "A47G U49C", "self-cleavage": 0.98},
      {"variant": "A47G U49A", "self-cleavage": 1.06},
      {"variant": "G48A A90G", "self-cleavage": 0.76},
      {"variant": "A47U A117U", "self-cleavage": 0.71},
      {"variant": "A47U A117G", "self-cleavage": 1.25},
      {"variant": "G48A A68G", "self-cleavage": 1.7},
      {"variant": "G48U A91G", "self-cleavage": 1},
      {"variant": "U49A A62G", "self-cleavage": 0.7},
      {"variant": "C46U A67G", "self-cleavage": 1.56},
      {"variant": "A47G U124C", "self-cleavage": 0.32},
      {"variant": "U43G U100C", "self-cleavage": 2.82},
      {"variant": "G44C A52G", "self-cleavage": 1.4},
      {"variant": "C46A C112U", "self-cleavage": 0.01},
      {"variant": "U43G A129G", "self-cleavage": 1.19},
      {"variant": "U49C A62U", "self-cleavage": 0.68},
      {"variant": "G44A U127C", "self-cleavage": 1.58},
      {"variant": "A47G A126G", "self-cleavage": 1},
      {"variant": "A47G A91U", "self-cleavage": 0.76},
      {"variant": "U49A C107U", "self-cleavage": 0.04},
      {"variant": "U49A A68G", "self-cleavage": 0.95},
      {"variant": "A47C A56G", "self-cleavage": 1.35},
      {"variant": "A47U A60U", "self-cleavage": 0.75},
      {"variant": "A47U A60C", "self-cleavage": 0.14},
      {"variant": "U49A A89C", "self-cleavage": 0.85},
      {"variant": "C46U A118U", "self-cleavage": 0.76},
      {"variant": "C46U A111G", "self-cleavage": 0.02},
      {"variant": "A47U A68U", "self-cleavage": 0.73},
      {"variant": "A47G A67U", "self-cleavage": 1.48},
      {"variant": "G48A A55G", "self-cleavage": 1.61},
      {"variant": "A47U A82C", "self-cleavage": 0.21},
      {"variant": "A47U A82U", "self-cleavage": 0.17},
      {"variant": "C46U A89U", "self-cleavage": 1.71},
      {"variant": "C46U A51G", "self-cleavage": 1.42},
      {"variant": "U49A U124A", "self-cleavage": 0.56},
      {"variant": "U43G A54U", "self-cleavage": 1.97},
      {"variant": "A47G A86G", "self-cleavage": 1.25},
      {"variant": "A47G A86C", "self-cleavage": 1.04},
      {"variant": "U49C A117U", "self-cleavage": 1.08},
      {"variant": "U49C A117G", "self-cleavage": 1.68},
      {"variant": "A47U A52U", "self-cleavage": 1.2},
      {"variant": "A47U A52G", "self-cleavage": 0.81},
      {"variant": "G48C A63G", "self-cleavage": 1.45},
      {"variant": "G44A A125C", "self-cleavage": 1.48},
      {"variant": "C45A U120A", "self-cleavage": 2.12},
      {"variant": "U43C U57C", "self-cleavage": 0.31},
      {"variant": "A47U A62G", "self-cleavage": 0.82},
      {"variant": "U49A U132C", "self-cleavage": 1.09},
      {"variant": "C46U C113A", "self-cleavage": 0.01},
      {"variant": "A47U A78U", "self-cleavage": 0.25},
      {"variant": "A47G U57C", "self-cleavage": 0.69},
      {"variant": "A47U A91G", "self-cleavage": 0.88},
      {"variant": "A47U A91U", "self-cleavage": 0.51},
      {"variant": "C46U U100C", "self-cleavage": 2.37},
      {"variant": "U49C A52U", "self-cleavage": 1.38},
      {"variant": "U49A A118G", "self-cleavage": 1.31},
      {"variant": "U43C U103C", "self-cleavage": 1.03},
      {"variant": "U43C U103A", "self-cleavage": 0.41},
      {"variant": "A47C A51G", "self-cleavage": 1.5},
      {"variant": "G44A A111G", "self-cleavage": 0.01},
      {"variant": "U49A A92G", "self-cleavage": 1.28},
      {"variant": "U49C A78C", "self-cleavage": 0.43},
      {"variant": "U49C A78U", "self-cleavage": 0.37},
      {"variant": "U49C A78G", "self-cleavage": 0.2},
      {"variant": "A47U A125G", "self-cleavage": 0.28},
      {"variant": "A47G A89G", "self-cleavage": 1.1},
      {"variant": "A47U U122A", "self-cleavage": 0.87},
      {"variant": "C46A A56G", "self-cleavage": 1.81},
      {"variant": "A47G U100C", "self-cleavage": 1.85},
      {"variant": "A47G A118U", "self-cleavage": 0.67},
      {"variant": "U49C A91U", "self-cleavage": 1.68},
      {"variant": "U49C A91G", "self-cleavage": 0.77},
      {"variant": "C45A C101U", "self-cleavage": 0.48},
      {"variant": "A47U A96G", "self-cleavage": 1.28},
      {"variant": "G44A A117G", "self-cleavage": 1.66},
      {"variant": "A47G U120C", "self-cleavage": 0.48},
      {"variant": "C46U A52G", "self-cleavage": 1.09},
      {"variant": "A47C U97C", "self-cleavage": 0.33}
    ]}
  ]
}
